# Measurements: publication PMC10888979 (bioRxiv, 2024)
# B1: VHH_(RD7-04), construct for co-crystallization (VHH)
# VHH: QVQLVESGGGLVQPGGSLRLSCVASGFTFKNFYMGWVRQAPDKGLEWVATINSGGEIQSYADSVKGRFTISRDNAKNTLYLQMNNLRPEDTAVYYCSKQSSTPAKGQGTQVTVSS
# Target: Mat1 (230-309) (human, UniProt P51948)
# Test: crystal structure
# Mat1 (230-309), sequence (P51948 230-309): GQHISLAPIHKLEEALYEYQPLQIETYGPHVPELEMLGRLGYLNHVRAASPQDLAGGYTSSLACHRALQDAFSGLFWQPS
binder,measurement,value
B1,binding result,binds
